In PMC10691330:

Assays:
Assay in all cases: packaging into virions
[1] = target: HIV-1 O capsid protein (p24) (HIV-1 group O)
[2] = target: HIV-1 N capsid protein (p24) (HIV-1 group N)
[3] = target: HIV-1 P capsid protein (p24) (HIV-1 group P)
[4] = target: HIV-1 M capsid protein (p24) (HIV-1 group M)

Sequence of HA-tagged cyclophilin A (CYPA-HA) (P62937 whole entry): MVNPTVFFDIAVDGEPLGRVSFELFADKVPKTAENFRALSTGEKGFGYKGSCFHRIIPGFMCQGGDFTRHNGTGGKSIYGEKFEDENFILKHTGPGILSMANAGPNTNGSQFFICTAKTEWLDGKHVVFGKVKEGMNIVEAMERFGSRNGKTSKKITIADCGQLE

**Q.** Which results are given for “HA-tagged cyclophilin A (CYPA-HA) (from UniProt P62937 1-165) (natural protein)”?
**A.** percent reduction of virion-associated CYPA by 1 µM CsA [1]: 70%; percent reduction of virion-associated CYPA by 1 µM CsA [2]: 70%; percent reduction of virion-associated CYPA by 1 µM CsA [3]: 70%; percent reduction of virion-associated CYPA by 1 µM CsA [4]: 40%
